In US20260209291A1:

How the values were obtained:
Assay in all cases: cell-based or functional assay
[1] = target: T1, myostatin (Homo sapiens (Human)) (UniProt O14793)
T1 sequence: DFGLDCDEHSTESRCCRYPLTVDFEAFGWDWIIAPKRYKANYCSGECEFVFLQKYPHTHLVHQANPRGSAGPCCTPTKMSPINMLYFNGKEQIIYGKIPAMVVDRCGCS

[2] = target: T2, GDF11 (Growth Differentiation Factor 11) (Homo sapiens (Human)) (UniProt O95390)
T2 sequence: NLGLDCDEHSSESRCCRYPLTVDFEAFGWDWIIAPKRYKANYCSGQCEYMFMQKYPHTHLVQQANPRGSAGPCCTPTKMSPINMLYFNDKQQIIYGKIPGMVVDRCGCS

activin A (human) = target: T3, activin A (human) (UniProt P08476)
T3 sequence: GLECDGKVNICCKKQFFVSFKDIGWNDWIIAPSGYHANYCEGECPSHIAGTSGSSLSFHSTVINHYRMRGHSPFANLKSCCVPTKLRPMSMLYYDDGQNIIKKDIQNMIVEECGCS

Chain of VGFR(½)-hFc (Aflibercept) (Fc fusion) (chain): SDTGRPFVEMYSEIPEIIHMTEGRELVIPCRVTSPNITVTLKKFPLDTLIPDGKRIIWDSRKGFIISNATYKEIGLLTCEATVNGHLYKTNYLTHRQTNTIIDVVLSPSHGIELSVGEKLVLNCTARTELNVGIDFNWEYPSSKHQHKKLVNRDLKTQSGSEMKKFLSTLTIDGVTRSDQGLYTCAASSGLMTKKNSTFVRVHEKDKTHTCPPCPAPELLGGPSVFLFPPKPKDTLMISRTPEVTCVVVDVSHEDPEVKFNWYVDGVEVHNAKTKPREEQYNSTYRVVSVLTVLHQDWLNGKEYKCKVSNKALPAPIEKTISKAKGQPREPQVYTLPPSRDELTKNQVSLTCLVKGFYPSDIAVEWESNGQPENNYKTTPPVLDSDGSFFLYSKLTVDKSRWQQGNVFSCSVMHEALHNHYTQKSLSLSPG

neutralization of myostatin signaling (pSmad2/3 luciferase reporter bioassay, HEK293) [1] [nM] | neutralization of GDF11 signaling (pSmad2/3 luciferase reporter bioassay, HEK293) [2] [nM] | neutralization of activin A signaling (pSmad2/3 luciferase reporter bioassay, HEK293) (activin A (human)) [nM] | Substance
> 8.2 | > 8.2 | – | VGFR(½)-hFc (Aflibercept) (Fc fusion)
> 8.2 | > 8.2 | > 8.2 | TNFR2-hFc (Etanercept) (Fc fusion)
> 822 | – | > 822 | FSD1 (Q124A) (single entity produced in E. coli) (from UniProt P19883 93-165)
> 822 | – | > 822 | FSD1 (Q124A, E126A) (single entity produced in E. coli) (from UniProt P19883 93-165)
> 822 | – | > 822 | FSD1 (E126A) (single entity produced in E. coli) (from UniProt P19883 93-165)
